# Experimental data as given in the DeepSol protein solubility set.
# Test: soluble on expression in E. coli; label from the status in PepcDB or PDB records
row,Sequence,soluble on expression in E. coli
1,GSKNCPDPELCRQSFRRFCYQEVSGPQEALSQLRQLCRQWLQPELHTKEQILELLVMEQFLTILPEEIQARVRHRCLMSSKEIVTLVEDFHRASKKPK,soluble
2,GSMAAAGNKSINAKLVLLGDVGAGKSSLVLRFVKDQFVEFQESTIGAAFFSQTLAVNDATVKFEIWDTAGQERYHSLAPMYYRGAAAAIIVFDVTNQASFERAKKWVQELQAQGNPNMVMALAGNKSDLLDARKVTAEDAQTYAQENGLFFMETSAKTATNVKEIFYEIARRLPRVQPTEN,soluble
3,GSMFTPKPPQDSAVIKAGYCVKQGAVMKNWKRRYFQLDENTIGYFKSELEKEPLRVIPLKEVHKVQECKQSDIMMRDNLFEIVTTSRTFYVQADSPEEMHSWIKAVSGAIVAQRGPGRSASSEHP,soluble
4,GSMTHYDVVVLGAGPGGYVAAIRAAQLGLSTAIVEPKYWGGVCLNVGCIPSKALLRNAELVHIFTKDAKAFGISGEVTFDYGIAYDRSRKVAEGRVAGVHFLMKKNKITEIHGYGTFADANTLLVDLNDGGTESVTFDNAIIATGSSTRLVPGTSLSANVVTYEEQILSRELPKSIIIAGAGAIGMEFGYVLKNYGVDVTIVEFLPRALPNEDADVSKEIEKQFKKLGVTILTATKVESIADGGSQVTVTVTKDGVAQELKAEKVLQAIGFAPNVEGYGLDKAGVALTDRKAIGVDDYMRTNVGHIYAIGDVNGLLQLAHVAEAQGVVAAETIAGAETLTLGDHRMLPRATFCQPNVASFGLTEQQARNEGYDVVVAKFPFTANAKAHGVGDPSGFVKLVADAKHGELLGGHLVGHDVAELLPELTLAQRWDLTASELARNVHTHPTMSEALQECFHGLVGHMINF,soluble
5,GSPEETLVIALYDYQTNDPQELALRCDEEYYLLDSSEIHWWRVQDKNGHEGYAPSSYLVEKSP,soluble
6,GSRIAKRTAINKTKKADVKAIADAWQINGEKELELLQQIAQKPGALRILNHSLRLAAMTAHGKGERVNEDYLRQAFRELDLDVDISTLLRN,soluble
7,GSSGSSGQFSDMRISINQTPGKSLDFGFTIKWDIPGIFVASVEAGSPAEFSQLQVDDEIIAINNTKFSYNDSKEWEEAMAKAQETGHLVMDVRRYGK,soluble
8,GSSLASQGQNLSTVLANLTPEQQKNVLGERLYNHIVAINPAAAAKVTGMLLEMDNGEILNLLDTPGLLDAKVQEALEVLNRHMNV,soluble
9,GSTAMATTMEQEICAHSMTFEECPKCSALQYRNGFYLLKYDEEWYPEELLTDGEDDVFDPDLDMEVVFETQ,soluble
10,GSVSMSGGFLRDDHLEFALHLHRRLAEAVPDGEVIWSPYSVACALGVLAAGARATTRTELTTLLGTDPAPLLAALDRAVTDSPDLASRTVLWVSADVPVRSSFRATMHDRPDSDVRTADFRTNPEGVRATVNADIADATRGMIRELLPQGAVTPDLRAILTNALWAKARWTTPFEAHLTRAGTFRTPRGPKRVPFMHRTKTMPYATARGWRMVTLHAHDELAVDVLLPPGTNAAAVPTAPLLTALHRRSASTSVELALPRFELTQPHQLVEVLAEAGVRTLFTASADLSGISTVPLYVDTVIHQARLRVDERGAEGAAATAAMMLLAGAMPPRRTIRFSVDRPFHIVVRRRGAILFLGSIADPHDPGPAQ,soluble
11,GTAGKVIKCKAAVLWEQKQPFSIEEIEVAPPKTKEVRIKILATGICRTDDHVIKGTMVSKFPVIVGHEATGIVESIGEGVTTVKPGDKVIPLFLPQCRECNACRNPDGNLCIRSDITGRGVLADGTTRFTCKGKPVHHFMNTSTFTEYTVVDESSVAKIDDAAPPEKVCLIGCGFSTGYGAAVKTGKVKPGSTCVVFGLGGVGLSVIMGCKSAGASRIIGIDLNKDKFEKAMAVGATECISPKDSTKPISEVLSEMTGNNVGYTFEVIGHLETMIDALASCHMNYGTSVVVGVPPSAKMLTYDPMLLFTGRTWKGCVFGGLKSRDDVPKLVTEFLAKKFDLDQLITHVLPFKKISEGFELLNSGQSIRTVLTF,soluble
12,GTKASKSGVPVTQTQTAGADTTAEKCKGKGEKDCKSPDCKWEGGTCKD,soluble
13,GTPLPENENMSLYQSRVTVGELEMLASRFVGRTRVRNAFAQYWSQQRETLLPNQQASSALIRHTERVLAGVFGASSAKLVLTSALQGRKMQLEEVATIVDEASELYDFSRGLLQGAIEHIG,not soluble
14,GVTGADGTTTFTLKQDQTTGLKTELTAALDSSSSTKSTLPVVFTVLTSPDSPKAKFWGHMAETATGDDGLIYRRPLLRDENSATTSIGTLVEEGEAWSTFPSGQANDTSINGCGAEYVPTDNELRAIYAHQGSSALHDAIGWPVSRFYISNTVADTFTQTFTYDVVSLKTGDETQMPSSGGALLSCR,not soluble
15,GVVETPRSALKVTAQPNDVLLGNYVVLSPQTVLKSSKLAPVHPLAEQVKIITHNGRAGGYQVDGYDGRVLLPCGSAIPVPEFQALSESATMVYNEREFVNRKLYHIAVHGPSLNTDEENYEKVRAERTDAEYVFDVDKKCCVKREEASGLVLVGELTNPPFHEFAYEGLKIRPSAPYKTTVVGVFGVPGSGKSAIIKSLVTKHDLVTSGKKENCQEIVNDVKKHRGKGTSRENSDSILLNGCRRAVDILYVDEAFACHSGTLLALIALVKPRSKVVLCGDPKQCGFFNMMQLKVNFNHNICTEVCHKSISRRCTRPVTAIVSTLHYGGKMRTTNPCNKPIIIDTTGQTKPKPGDIVLTCFRGWAKQLQLDYRGHEVMTAAASQGLTRKGVYAVRQKVNENPLYAPASEHVNVLLTRTEDRLVWKTLAGDPWIKVLSNIPQGNFTATLEEWQEEHDKIMKVIEGPAAPVDAFQNKANVCWAKSLVPVLDTAGIRLTAEEWSTIITAFKEDRAYSPVVALNEICTKYYGVDLDSGLFSAPKVSLYYENNHWDNRPGGRMYGFNAATAARLEARHTFLKGQWHTGKQAVIAERKIQPLSVLDNVIPINRRLPHALVAEYKTVKGSRVEWLVNKVRGYHVLLVSEYNLALPRRRVTWLSPLNVTGADRCYDLSLGLPADAGRFDLVFVNIHTEFRIHHYQQCVDHAMKLQMLGGDALRLLKPGGILMRAYGYADKISEAVVSSLSRKFSSARVLRPDCVTSNTEVFLLFSNFDNGKRPSTLHQMNTKLSAVYAGEAMHTAGC,soluble
16,GYMPPIEHLQNPIDKYASQLISADGKVFGSYAHSGDNRIYTRYNEISPDLIKALIATEDVRFRKHSGIDSKGLFRAVVKRGILNQKSGGGGSTITQQLAKLLYSPRTETKLGRLFQKPIEWVIAVKLERFYTKEEIITMYLNYFDFLYNAVGIKSAAYTYFGKQPADLKIEEAAVLVGMCKNPAYYNPVLHGETERCRGRRNIVLEQMYKAKYITKAECDSLQKLPLVTSFHRITHRDGEAPYFRERLRQVLMAKKPERKNYLAWQDDQYRADSIAWETDPVYGWCNKNKKADGSNYNIYTDGLKIYTTIDLRMQQYAEEAMVKQMKEVLQPIFDKEKRGRSYAPFSRDITSDEQRSILLRAMKQTDRWREMKKAGISESEIRASFNKKRKMQVWNWRGTIDTVMSPLDSIKYLKGILRTGFMAMNPHNGHIKAYVGGINFRNFQYDMVSQGRRQVGSTIKPFLYSLSMLEGISPCDEMLHVSQTLFTESGKAWTPKNTGARRTGEMVSIKWGLQNSSNWVTAYLMGRTSPYTFVRLLRS,not soluble
17,HETENAWRETEERLAATYQAATIGIAESDADGRLLRVNDAFCTMLGRSREQLLNMTFLDYTHEDDRDEEARCYARQVSGETDTYAIRKRAVKADGTVIYLDVYSSTVRDRTGRFRYGVRVLLDVT,not soluble
18,HLDGRGAAMMEMAGLAQKGGAVQIHCRIAEKPSDISAIRVAVGEADGVIGGDLVVTAGAKTLGLMSQGRTGAVVNSHDIVTGEFTRNTDFRVPSDRLQVSLQARLQDRVAFLDATELARILMGDSIYSNMMVFGAAWQRGLIPLSAEAIQRAIELNGAAVAQNARAFALGRWAVL,not soluble
19,HLQTKTAAKTGEGLSESAIHRTFQQLASGFDTIYGGFGQAPKFPMPHMLMYLLRYDHNTGQENALYNVTKTLDSMANGGIYDHIGYGFARYSTDDEWLVPHFEKMLYDNALLLTAYTEAYQVTQNSRYKEICEQIITFIQREMTHEDGSFFSALDADTEGEEGKYYVWSKEEILKTLGDDLGTLYCQVYDITEEGNFEGKNIPNLIHTKREQIKEDAGLTEKELSLKLEDARQQLLKTREERTYPHVDDKVLTSWNALMIAGLAKAAKVYQEPKYLSLAKDAITFIENKLIIDGRVMVRYRDGEVKNKGFIDDYAFLLWAYLDLYEASFDLSYLQKAKKLTDDMISLFWDEEHGGFYFTGHDAEALIVREKEV,not soluble
20,HMFPARWHNYLQCGQVIKDSNLICFKTPLRPELFAYVTSEEDVWTAEQIVKQNPSIGAIIDLTNTSKYYDGVHFLRAGLLYKKIQVPGQTLPPESIVQEFIDTVKEFTEKCPGMLVGVHCTHGINRTGYMVCRYLMHTLGIAPQEAIDRFEKARGHKIERQNYVQDLLI,soluble
21,HMSNPLGELVKALEKLSFKPSDVRIYSLLLERGGMRVSEIARELDLSARFVRDRLKVLLKRGFVRREIVEKGWVGYIYSAEKPEKVLKEFKSSILGEIERIEKMFTDGS,soluble
22,HPISLMRAPVNEIMVGLGYYEVMPFTLTSEKVNFENMCREKTDDVTYVLHPISEDQTMLRTTVLPNLLEILALNQHRELPQKIFEFGEVVSNETTGQHVAAVSIHPQANFTEVYEVVDAFMREMMLSYEVKESKDPAFLEGRRADVYVNGKKLGVFGELQPEVISKFSLGYAVVGFELDLNDLIGKN,not soluble
23,HTDPGDVVIEELFNRIPETSVWNENERVLSNANHLVSTALWRNEQSFRVESELGERPRTLVRGPVLRDDGSYICLEATDQETGEPLEVHVPYFTERPPSNAIKQLSEQVLRLRLLRGIKNQRQAKAYLRFIFPIDLVKDPKKRKMIRVRLDERDMWVLSRFFLYPRMQSNLHILGDVLLSHSSTHKSLVHHARLQLTLQLIRLAASLQHYGLVHADFQVRNILLDQRGGVFLTGFEHLVRDGASAVSPIGRGFAPPETTAERMLPYRQHHPTLMTFPFDTWTLGLAIYWIWCADLPNTEDAELGGIEWIYRRCKNIPQPVRALLEGFLRYSKEDRLLPLQAMETSEYEQLRTELSAVLPLYQTDGEPA,soluble
24,IAAGGSHVEAAPQEEWKKHFIHTGELGSAEFASVMSHTTSAMKSVFEQVNAPYSGMDPKALEDAINAVDLDNKNAPLKSVIDDVAELVAKNAIFTQHPDCIAHLHTPPLMPAVAAEAMIAALNQSMDSWDQASSATYVEQKVVNWLCDKYDLSEKADGIFTSGGTQSNQMGLMLARDWIADKLSGHSIQKLGLPDYADKLRIVCSKKSHFTVQKSASWMGLGEKAVMTVDANADGTMDITKLDEVIAQAKAEGLIPFAIVGTAGTTDHGAIDDLDFIADMAVKHDMWMHVDGAYGGALILSSHKSRLKGVERAHSISVDFHKLFYQTISCGALLVNDKSNFKFLLHHADYLNREHDELPNLVDKSIATTKRFDALKVFMTMQNVGPKALGDMYDHLLAQTLEVADMIRTNDQFELLAEPSLSTVLFRATHETADLDELNKALRLEALTRGIAVLGETIVDGKTALKFTILNPCLTTSDFESLLSKINMLAVELV,soluble
25,IATGIPTGFKDLDDLTNGLRGGQMIIVAARPGVGKSTIALDFMRSASIKNNMASVIFSLEMSKSEIVMRLLSAETEIRLADMRGGKMDETAWEKMVQKLDKVAQAPLFIDDSANLTMMEIRSKARKLKQKHDLKMIVVDYLQLMSSGKRVESRQQEVSEFSRQLKLLAKELDVPLIAISQLNRGPESRTDKRPQLADL,not soluble
